± gives the standard deviation of the averaged measurements.
Test system: ATP
Experiment: switch fluorescence ratio, 500 uM ATP over buffer (Cy3 cluster intensity, sum of 5 cycles each) (fold (ratio)); higher = stronger signal-on switching upon ATP binding; sequences stand for … in TCGTCGGCAGCGTCAGATGTGTATAAGAGACAGTTTTTTTTTTTTTTTTTTTTTTTTT…TC
Conditions: aptamer strand: ATP DNA aptamer (quencher-CACCTGGGGGAGTATTGCGGAGGAAGG + anchor), 100 nM annealed; ATP concentration: 500 uM
In short: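 After annealing to 100 nM quencher-labelled ATP aptamer, Cy3-labelled switching-strand clusters on a modified Illumina MiSeq flow-cell were imaged in selection buffer. A second image followed after 15 min with 500 uM ATP at 22 °C, and five such buffer/ATP cycles were done, each separated by NaOH stripping and re-annealing. The fluorescence ratio, averaged per switch-domain sequence, is summed target-cycle over summed buffer-cycle Cy3 intensity per cluster, with clusters outside 100-1000 RFU excluded.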
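Further: ATP exposure 15 min at 22 °C before imaging.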

Sequence: TGAGGTCCCA
- switch fluorescence ratio: 1.01 ± 0.014

Sequence: TGAGGTGCGA
- switch fluorescence ratio: 1.01 ± 0.023

Sequence: TGAGGTTAGG
- switch fluorescence ratio: 1 ± 0.012

Sequence: TGAGGTTTGG
- switch fluorescence ratio: 1.02 ± 0.028

Sequence: TGAGTAAGGG
- switch fluorescence ratio: 0.991 ± 0.029

Sequence: TGAGTAAGTA
- switch fluorescence ratio: 0.995 ± 0.048

Sequence: TGAGTAGAGG
- switch fluorescence ratio: 1 ± 0.02

Sequence: TGAGTAGCTC
- switch fluorescence ratio: 0.9715 ± 0.0037

Sequence: TGAGTAGGGC
- switch fluorescence ratio: 0.948 ± 0.041

Sequence: TGAGTAGGGT
- switch fluorescence ratio: 0.992 ± 0.011

Sequence: TGAGTATTTG
- switch fluorescence ratio: 0.98 ± 0.025

Sequence: TGAGTCAATT
- switch fluorescence ratio: 0.99 ± 0.032

Sequence: TGAGTCTCTG
- switch fluorescence ratio: 0.998 ± 0.012

Sequence: TGAGTCTGCG
- switch fluorescence ratio: 1.02 ± 0.12

Sequence: TGAGTCTTCG
- switch fluorescence ratio: 1.03 ± 0.017

Sequence: TGAGTGACTT
- switch fluorescence ratio: 0.974 ± 0.012

Sequence: TGAGTGGGG
- switch fluorescence ratio: 0.975 ± 0.05

Sequence: TGAGTGGGGG
- switch fluorescence ratio: 0.982 ± 0.014

Sequence: TGAGTGTTAC
- switch fluorescence ratio: 1 ± 0.028

Sequence: TGAGTTGTGT
- switch fluorescence ratio: 1.03 ± 0.075

Sequence: TGATAAAACG
- switch fluorescence ratio: 0.992 ± 0.041

Sequence: TGATAAACGG
- switch fluorescence ratio: 1 ± 0.019

Sequence: TGATAAGTAC
- switch fluorescence ratio: 1.38 ± 0.065

Sequence: TGATAATAGT
- switch fluorescence ratio: 0.989 ± 0.021

Sequence: TGATAATTAC
- switch fluorescence ratio: 1.19 ± 0.27

Sequence: TGATAATTTT
- switch fluorescence ratio: 1 ± 0.039

Sequence: TGATACACGT
- switch fluorescence ratio: 1 ± 0.013

Sequence: TGATACCGTG
- switch fluorescence ratio: 1.01 ± 0.017

Sequence: TGATACGGAG
- switch fluorescence ratio: 0.983 ± 0.06

Sequence: TGATACTCTG
- switch fluorescence ratio: 1.03 ± 0.029

Sequence: TGATAGATGT
- switch fluorescence ratio: 0.983 ± 0.026

Sequence: TGATAGGGTT
- switch fluorescence ratio: 0.985 ± 0.014

Sequence: TGATATTT
- switch fluorescence ratio: 0.991 ± 0.022

Sequence: TGATATTTGC
- switch fluorescence ratio: 0.969 ± 0.033

Sequence: TGATCCTATG
- switch fluorescence ratio: 0.992 ± 0.016

Sequence: TGATCGGCTA
- switch fluorescence ratio: 1.01 ± 0.049

Sequence: TGATCGTCTG
- switch fluorescence ratio: 1.031 ± 0.0017

Sequence: TGATGAAGAT
- switch fluorescence ratio: 0.9817 ± 0.0071

Sequence: TGATGAATGA
- switch fluorescence ratio: 1.001 ± 0.0021

Sequence: TGATGCAAGT
- switch fluorescence ratio: 1.09 ± 0.032

Sequence: TGATGCATCG
- switch fluorescence ratio: 1 ± 0.034

Sequence: TGATGGAAAA
- switch fluorescence ratio: 0.998 ± 0.023

Sequence: TGATGGATAT
- switch fluorescence ratio: 0.9921 ± 0.0021

Sequence: TGATGGGGGG
- switch fluorescence ratio: 0.994 ± 0.021

Sequence: TGATGGGGTT
- switch fluorescence ratio: 0.9969 ± 0.0078

Sequence: TGATGGGTAG
- switch fluorescence ratio: 0.998 ± 0.028

Sequence: TGATGGTGGC
- switch fluorescence ratio: 0.997 ± 0.017

Sequence: TGATGTGGCG
- switch fluorescence ratio: 0.994 ± 0.041

Sequence: TGATGTGGTG
- switch fluorescence ratio: 0.976 ± 0.018

Sequence: TGATGTTATG
- switch fluorescence ratio: 0.9911 ± 0.0025

Sequence: TGATTAAAGG
- switch fluorescence ratio: 1.02 ± 0.025

Sequence: TGATTAAATA
- switch fluorescence ratio: 0.994 ± 0.028

Sequence: TGATTACTAG
- switch fluorescence ratio: 0.974 ± 0.017

Sequence: TGATTCCATT
- switch fluorescence ratio: 0.9991 ± 0.0052

Sequence: TGATTCTAAG
- switch fluorescence ratio: 0.977 ± 0.019

Sequence: TGATTCTTCG
- switch fluorescence ratio: 1.01 ± 0.023

Sequence: TGATTCTTGA
- switch fluorescence ratio: 1.03 ± 0.064

Sequence: TGATTGAGCC
- switch fluorescence ratio: 0.998 ± 0.047

Sequence: TGATTGATTG
- switch fluorescence ratio: 1.03 ± 0.066

Sequence: TGATTGCAGC
- switch fluorescence ratio: 0.994 ± 0.028

Sequence: TGATTGCCCT
- switch fluorescence ratio: 0.9925 ± 0.0044

Sequence: TGATTGGGAA
- switch fluorescence ratio: 0.995 ± 0.021

Sequence: TGATTGGGAC
- switch fluorescence ratio: 0.9673 ± 0.0074

Sequence: TGATTGTATT
- switch fluorescence ratio: 0.979 ± 0.015

Sequence: TGATTGTTAG
- switch fluorescence ratio: 0.988 ± 0.023

Sequence: TGATTTAATT
- switch fluorescence ratio: 0.97 ± 0.036

Sequence: TGATTTAGGA
- switch fluorescence ratio: 1.01 ± 0.036

Sequence: TGATTTATTG
- switch fluorescence ratio: 0.985 ± 0.03

Sequence: TGATTTATTT
- switch fluorescence ratio: 0.9927 ± 0.0048

Sequence: TGATTTCACG
- switch fluorescence ratio: 1.02 ± 0.011

Sequence: TGATTTCTTT
- switch fluorescence ratio: 0.997 ± 0.0018

Sequence: TGATTTGACA
- switch fluorescence ratio: 1.01 ± 0.013

Sequence: TGATTTGGGT
- switch fluorescence ratio: 1.01 ± 0.021

Sequence: TGATTTTACG
- switch fluorescence ratio: 0.983 ± 0.019

Sequence: TGATTTTGGT
- switch fluorescence ratio: 1.01 ± 0.025

Sequence: TGCAAAAGGG
- switch fluorescence ratio: 1.024 ± 0.0074

Sequence: TGCAAAATAA
- switch fluorescence ratio: 1.17 ± 0.24

Sequence: TGCAAAATTG
- switch fluorescence ratio: 0.995 ± 0.024

Sequence: TGCAAAGGTG
- switch fluorescence ratio: 1.34 ± 0.094

Sequence: TGCAAATTCC
- switch fluorescence ratio: 1.11 ± 0.021

Sequence: TGCAACACAT
- switch fluorescence ratio: 1.03 ± 0.029

Sequence: TGCAACGTTT
- switch fluorescence ratio: 0.971 ± 0.024

Sequence: TGCAAGAAGT
- switch fluorescence ratio: 1.022 ± 0.0069

Sequence: TGCAAGGGTT
- switch fluorescence ratio: 1.12 ± 0.088

Sequence: TGCAAGGTTA
- switch fluorescence ratio: 1.02 ± 0.051

Sequence: TGCAAGGTTT
- switch fluorescence ratio: 1.05 ± 0.1

Sequence: TGCAAGTGGC
- switch fluorescence ratio: 1.09 ± 0.15

Sequence: TGCAATAATA
- switch fluorescence ratio: 1.06 ± 0.091

Sequence: TGCAATGTTT
- switch fluorescence ratio: 1.38 ± 0.52

Sequence: TGCACAGGCT
- switch fluorescence ratio: 1.119 ± 0.0062

Sequence: TGCACATTCC
- switch fluorescence ratio: 1.7 ± 0.15

Sequence: TGCACCCGTA
- switch fluorescence ratio: 1.054 ± 0.0013

Sequence: TGCACGCAGC
- switch fluorescence ratio: 1.25 ± 0.09

Sequence: TGCACGGTTG
- switch fluorescence ratio: 1.002 ± 0.0026

Sequence: TGCACTCTCA
- switch fluorescence ratio: 1.04 ± 0.032

Sequence: TGCAGAAGCC
- switch fluorescence ratio: 1.02 ± 0.026

Sequence: TGCAGACAGA
- switch fluorescence ratio: 1.02 ± 0.055

Sequence: TGCAGCTGCG
- switch fluorescence ratio: 0.974 ± 0.049

Sequence: TGCAGGAGAA
- switch fluorescence ratio: 0.9718 ± 0.0087

Sequence: TGCAGGAGCT
- switch fluorescence ratio: 1.01 ± 0.032

Sequence: TGCAGGATGC
- switch fluorescence ratio: 0.971 ± 0.027

Sequence: TGCAGGGAGT
- switch fluorescence ratio: 1.04 ± 0.037

Sequence: TGCAGGGCAG
- switch fluorescence ratio: 0.98885 ± 0.00071

Sequence: TGCAGGGGCT
- switch fluorescence ratio: 1.15 ± 0.22

Sequence: TGCAGGTGGC
- switch fluorescence ratio: 1.13 ± 0.035

Sequence: TGCAGGTTTT
- switch fluorescence ratio: 1.01 ± 0.054

Sequence: TGCAGTAGCG
- switch fluorescence ratio: 0.9936 ± 0.0051

Sequence: TGCAGTGCGT
- switch fluorescence ratio: 1.0018 ± 9.8e-05

Sequence: TGCAGTGGGA
- switch fluorescence ratio: 1.02 ± 0.016

Sequence: TGCAGTTTGT
- switch fluorescence ratio: 0.9929 ± 0.0065

Sequence: TGCATCAGCT
- switch fluorescence ratio: 1.03 ± 0.046

Sequence: TGCATGGCTG
- switch fluorescence ratio: 0.99 ± 0.01

Sequence: TGCATGGGGT
- switch fluorescence ratio: 1.01 ± 0.022

Sequence: TGCATTACGT
- switch fluorescence ratio: 1.35 ± 0.015

Sequence: TGCATTATTA
- switch fluorescence ratio: 0.995 ± 0.049

Sequence: TGCATTGCTG
- switch fluorescence ratio: 1.01 ± 0.038

Sequence: TGCATTTCAG
- switch fluorescence ratio: 1 ± 0.025

Sequence: TGCCAATGTG
- switch fluorescence ratio: 0.989 ± 0.013

Sequence: TGCCACGTAA
- switch fluorescence ratio: 1.3 ± 0.065

Sequence: TGCCACTGGG
- switch fluorescence ratio: 1.06 ± 0.019

Sequence: TGCCAGTTGT
- switch fluorescence ratio: 1.006 ± 0.0076

Sequence: TGCCGAGTGC
- switch fluorescence ratio: 1.046 ± 0.0083

Sequence: TGCCGCTTAA
- switch fluorescence ratio: 1.193 ± 0.0089

Sequence: TGCCGGAATA
- switch fluorescence ratio: 1.38 ± 0.041

Sequence: TGCCGGGCTT
- switch fluorescence ratio: 1.01 ± 0.042

Sequence: TGCCGGGGAT
- switch fluorescence ratio: 1.01 ± 0.015

Sequence: TGCCGGGGGT
- switch fluorescence ratio: 1.03 ± 0.088

Sequence: TGCCGGGGTC
- switch fluorescence ratio: 1 ± 0.048

Sequence: TGCCGGTTGC
- switch fluorescence ratio: 0.99 ± 0.12

Sequence: TGCCTAATTG
- switch fluorescence ratio: 0.977 ± 0.026

Sequence: TGCCTACGGG
- switch fluorescence ratio: 1.02 ± 0.028

Sequence: TGCCTCGGCG
- switch fluorescence ratio: 1.0022 ± 0.00021

Sequence: TGCCTGGCAG
- switch fluorescence ratio: 1.08 ± 0.1

Sequence: TGCCTGGCTG
- switch fluorescence ratio: 0.99 ± 0.05

Sequence: TGCCTTGGGG
- switch fluorescence ratio: 1.07 ± 0.16

Sequence: TGCGAACACT
- switch fluorescence ratio: 1.002 ± 0.0064

Sequence: TGCGAGGGCA
- switch fluorescence ratio: 1.02 ± 0.0087

Sequence: TGCGATAGAA
- switch fluorescence ratio: 0.994 ± 0.043

Sequence: TGCGATTTAC
- switch fluorescence ratio: 1.15 ± 0.024

Sequence: TGCGCAAGGG
- switch fluorescence ratio: 1.27 ± 0.31

Sequence: TGCGGAGTAC
- switch fluorescence ratio: 1.33 ± 0.14

Sequence: TGCGGCCCAT
- switch fluorescence ratio: 0.979 ± 0.016

Sequence: TGCGGCGGGG
- switch fluorescence ratio: 1.07 ± 0.035

Sequence: TGCGGCTTCA
- switch fluorescence ratio: 1.01 ± 0.016

Sequence: TGCGGGATTA
- switch fluorescence ratio: 1.1 ± 0.18

Sequence: TGCGGGGGCA
- switch fluorescence ratio: 1.02 ± 0.025

Sequence: TGCGGGGGGA
- switch fluorescence ratio: 1.03 ± 0.036

Sequence: TGCGGGGGTA
- switch fluorescence ratio: 0.999 ± 0.019

Sequence: TGCGGGGTTT
- switch fluorescence ratio: 1.02 ± 0.054

Sequence: TGCGGGTGCT
- switch fluorescence ratio: 1.04 ± 0.042

Sequence: TGCGGGTTTT
- switch fluorescence ratio: 1.02 ± 0.016

Sequence: TGCGGTATGG
- switch fluorescence ratio: 1.03 ± 0.017

Sequence: TGCGGTTGTT
- switch fluorescence ratio: 0.999 ± 0.046

Sequence: TGCGGTTTGA
- switch fluorescence ratio: 1.01 ± 0.012

Sequence: TGCGTAAGGG
- switch fluorescence ratio: 1.03 ± 0.011

Sequence: TGCGTCGCCT
- switch fluorescence ratio: 1.013 ± 0.0049

Sequence: TGCGTGGTGG
- switch fluorescence ratio: 1.03 ± 0.019

Reference: the supplement of paper PMC10126150
